Test results from patent US6642353B1, “Peptide ligands for the erythropoietin receptor” (Chugai Seiyaku Kabushiki Kaisha, priority 2000, dated 2003).
Positions of bridges follow the written chain, without caps; N, C: chain ends. Residues, ends and D or L forms follow the SMILES beside them.

T1: chimeric Ig-EPOR protein (human; murine, UniProt P19235 25-250)
T1 construct: extracellular domain; Secreted from COS-7 cells transfected with pcDNA3-IgG1-EPOR; major species about 59 kDa; also called IgG-EPOR; chimeric receptor; not shown: hinge region, CH2 and CH3 domains of the murine IgG1 heavy chain
T1 sequence (looked up): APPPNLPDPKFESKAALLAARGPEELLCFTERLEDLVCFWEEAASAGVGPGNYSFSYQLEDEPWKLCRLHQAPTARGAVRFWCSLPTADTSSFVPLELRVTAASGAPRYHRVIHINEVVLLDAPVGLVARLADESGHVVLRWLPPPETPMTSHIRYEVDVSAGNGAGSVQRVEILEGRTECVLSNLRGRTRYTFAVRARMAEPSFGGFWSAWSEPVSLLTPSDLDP

B1: phage clone N11 (peptide)
chain: ALDVGRWDGVGHCKGCLKDEYTTLDSKNNPQISQVSPT
notes: not shown: M13 phage pIII coat protein
B2: phage clone N9 (peptide)
chain: SVDVCNQGGVGRCNDGLGDEYASKPSYQEAPRYNPNLR
notes: as for B1
B3: phage clone N10 (peptide)
chain: DFEGSLREWDGDWPEWLRDEYARPSYPNPHKANQKPP
notes: as for B1
B4: phage clone N8 (peptide)
chain: GLNICRPGWVGHCNDSLRDEYATNPRTPGPLSYNLQPT
notes: as for B1
B5: phage clone N13 (peptide)
chain: DIAVCRGGCVGLCEEGLRDEYACNVKKPVPHSYKLNTP
notes: as for B1
B6: phage clone N3 (peptide)
chain: DLNVGCPGYVGHCADWLGDEYPVHPNPEVPQTLNLKPH
notes: as for B1
B7: phage clone N1 (peptide)
chain: RLEDGDEGRVWHSSDLLSDEYASTPSYPLTPNYYEYPP
notes: as for B1
B8: phage clone N5 (peptide)
chain: NSDVTRRGWADHWREWNWDEYASTPTHPASHSSYLNPP
notes: as for B1
B9: phage clone N12 (peptide)
chain: DVEVGRRACVGYCQEFLRDEYTATPSYPDKHSNYLNPP
notes: as for B1
B10: phage clone N2 (peptide)
chain: GWAGCRSGGAGQCKEGAGDEYAENPSYPVPPRKHLNRL
notes: as for B1
B11: phage clone N7 (peptide)
chain: EFVVWPRGWVGHCKGCRVDEYSGDPSNLEAQTHDMNFQ
notes: as for B1
B12: phage clone N6 (peptide)
chain: EWVYSRQSWGGQWKDGVRDEYTMTPGDPVANKYSLMTP
notes: as for B1
B13: phage clone N4 (peptide)
chain: ELDMLRGGGVGQSKESLRDEYDHKTSTPVPPNQKLPPP
notes: as for B1
B14: phage clone B6 (peptide)
chain: SLEPCRGGWVGHCNEWQRDEYAINPKWPNAPIEDPNPL
notes: as for B1
B15: phage clone B10 (peptide)
chain: DLEVCRGGWVGHCKDWIWDEYARNPRYPDPQRKEVKSP
notes: as for B1
B16: phage clone B16 (peptide)
chain: DVEVCRGGWVGHCNAWLRDEYNRQPKKPVQQQVVYSTR
notes: as for B1
B17: phage clone B15 (peptide)
chain: QVDTCTRGWVGHCNAWMGDEYAKTPGLPMPQSDYLKPR
notes: as for B1
B18: phage clone B3 (peptide)
chain: GKEVCRRGWVGHCQEWPMDEYTRNPSHPVPHNSRHKTP
notes: as for B1
B19: phage clone B20 (peptide)
chain: DLAGCRRGWVGHCSEWLRDEYTSNPRYPVAPSYRLQPP
notes: as for B1
B20: phage clone B18 (peptide)
chain: YSDVCRRGWVGHCEDWLGDEYSSQPSYALPHSTSLNPR
notes: as for B1
B21: phage clone B19 (peptide)
chain: DLEGCRLGWVGHCNVWGGDEYTKRTSHSVPPSHKSKLL
notes: as for B1
B22: phage clone B13 (peptide)
chain: EGEVCLPGWVGHCKYWLMDEYANIPRNPTPRSNELKPP
notes: as for B1
B23: phage clone B1 (peptide)
chain: DVHECRPGWVGHCKDWLSDEYASNRRSPEPHRNYPIPP
notes: as for B1
B24: phage clone B17 (peptide)
chain: LLQMCSPGWVGHCNDWPRDEYANNPPNPVVDRQALTPP
notes: as for B1
B25: phage clone B9 (peptide)
chain: DFEDCQGGWVGHCNDWLGDEYARHPRYGATQTLSVNRH
notes: as for B1
B26: phage clone B21 (peptide)
chain: AKVVCRNGWVGHCSAWLTDEYESNPNTRIPNTFDMKTP
notes: as for B1
B27: phage clone B7 (peptide)
chain: DREGCRRGWVGQCKAWFNDEYAKPPKKPFRNSYSLGPA
notes: as for B1
B28: phage clone B8 (peptide)
chain: DVEACGGGWVGHCNYWLRDEYASKPIKQVPPGNHNQPS
notes: as for B1

These molecules were tested against T1, chimeric Ig-EPOR protein (assay: phage ELISA, relative to ERB1). Settings: not given.
Procedure: (§1) To better characterize the phage isolates having binding specificity for the EPOR, we compared the relative affinities of the binding clones presented in FIG. 4, using a phage ELISA procedure. Phage stocks of the binding clones were titered in triplicate to accurately determine the concentration of pfu/ml for each lysate. Different isolates were then assayed by ELISA using normalized phage concentrations so that all clones were tested using equivalent numbers of phage.

Row | Molecule | relative affinity (Rel. Aff., ERB1 = 1.0)
1 | B1 | < 0.1
2 | B2 | < 0.1
3 | B3 | < 0.1
4 | B4 | < 0.1
5 | B5 | < 0.1
6 | B6 | < 0.1
7 | B7 | < 0.1
8 | B8 | < 0.1
9 | B9 | < 0.1
10 | B10 | < 0.1
11 | B11 | < 0.1
12 | B12 | < 0.1
13 | B13 | < 0.1

These molecules were tested against T2, chimeric Ig-EPOR protein (Homo sapiens, UniProt P19235) (assay: peptide inhibition ELISA (binding of Ig-EPOR to EPO-coated plates)). Settings: not given.
T2 construct: a fusion protein having domains corresponding to murine IgG1 and the extracellular domain (ECD) of the human EPOR; made in house; secreted into the medium
Procedure: The wells were washed three times with PBS containing 0.05% (v/v) TWEEN® 20 non-ionic detergent, and then blocked with 1% (w/v) BSA and 0.05% TWEEN® 20 in PBS (blocking buffer) to prevent non-specific binding. Excess blocking buffer was removed by washing once. Culture media was serially diluted in blocking buffer, and 50 μl from each dilution was added to the coated and blocked wells. Wells receiving undiluted media served as a control. A set of uncoated wells also received the diluted cell-free media. Plates were then incubated for 2 hours at room temperature, and washed three times as described above. After removing unbound chimeric receptor by washing, bound chimeric protein was assayed using 100 μl of the HRP labeled anti-murine IgG antibody, substantially as described above. Color development was initiated by addition of 100 μl of the TMB peroxidase substrate, and the extent of the peroxidase reaction measured spectrophotometrically at 450 nm and 650 nm, as described above.
Synthetic peptides having the sequences […] (SEQ ID NO:81), and […] (SEQ ID NO:82) were synthesized in the cyclic (disulfide-bonded) form using standard procedures (Peninsula Laboratories, Belmont, Calif.). The 18-mer peptide sequences were derived from the B7 and B8 clones, and the peptides are referred to herein as “ERB1-7” (SEQ ID NO:81) and “ERB1-8” (SEQ ID NO:82), respectively. The structures of the two purified peptides, each being greater than 95% pure as judged by HPLC, were confirmed by mass spectrometry. […] Such synthetic peptides are EPO mimetics.
Synthetic peptides corresponding to the sequence of ERB1-7, but missing either one, two, three or four N-terminal amino acids were tested in the peptide inhibition ELISA protocol. The following peptides were synthesized and tested substantially as described in Example 8: 18-mer peptide ERB1-7, consisting of […] (SEQ ID NO:81);

Row | Molecule | IC50 [nM]
14 | CC(C)[C@@H]1NC(=O)[C@H](Cc2c[nH]c3ccccc23)NC(=O)CNC(=O)[C@H](CCCNC(=N)N)NC(=O)[C@H](CCCNC(=N)N)NC(=O)[C@@H](NC(=O)CNC(=O)[C@H](CCC(=O)O)NC(=O)[C@H](CCCNC(=N)N)NC(=O)[C@@H](N)CC(=O)O)CSSC[C@@H](C(=O)N[C@@H](CCCCN)C(=O)N[C@@H](C)C(=O)N[C@@H](Cc2c[nH]c3ccccc23)C(=O)N[C@@H](Cc2ccccc2)C(=O)N[C@@H](CC(N)=O)C(=O)O)NC(=O)[C@H](CCC(N)=O)NC(=O)CNC1=O [ERB1-7] (H-DREGCRRGWVGQCKAWFN-OH; disulfide 5-13; N-terminus and C-terminus assumed) | ~45
15 | CC(C)C[C@H](NC(=O)[C@H](Cc1c[nH]c2ccccc12)NC(=O)[C@H](Cc1ccc(O)cc1)NC(=O)[C@H](CC(N)=O)NC(=O)[C@@H]1CSSC[C@H](NC(=O)[C@H](C)NC(=O)[C@H](CCC(=O)O)NC(=O)[C@@H](NC(=O)[C@@H](N)CC(=O)O)C(C)C)C(=O)NCC(=O)NCC(=O)NCC(=O)N[C@@H](Cc2c[nH]c3ccccc23)C(=O)N[C@@H](C(C)C)C(=O)NCC(=O)N[C@@H](Cc2c[nH]cn2)C(=O)N1)C(=O)N[C@@H](CCCNC(=N)N)C(=O)O [ERB1-8] (H-DVEACGGGWVGHCNYWLR-OH; disulfide 5-13; N-terminus and C-terminus assumed) | ~45

Same assay, conditions: N-terminal truncations of ERB1-7

Row | Molecule | EPOR binding activity
16 | CRRGWVGQCKAWFN [7N-4] | abolished EPOR binding activity
17 | GCRRGWVGQCKAWFN [7N-3] | abolished EPOR binding activity

Each molecule was assayed against T1, chimeric Ig-EPOR protein (assay: biopanning of the ERB1 evolved library with Ig-EPOR (FIG. 4)). Settings: not given.
Procedure: The beads were washed three times in TBST (Tris buffered saline containing 0.1% (v/v) TWEEN® 20) and then suspended in 1 ml blocking medium (TBS SUPERBLOCK®). Phage in 100 μl aliquots containing about 1 ×10^10 plaque forming units (pfu) were added to the beads and the mixtures rotated gently for 2 hrs at room temperature. After washing the beads five times in TBST, phage were eluted with 300 μl of 50 mM glycine buffer (pH 2.2) for 10 min at room temperature. Eluted phage were immediately neutralized with 8 μl 2M Tris base that had not been pH-adjusted, mixed and stored at 4° C. Phage isolated by biopanning were amplified by mixing equal volumes of eluted phage and an overnight culture of E. coli strain JS5, diluting the mixture in 20 ml 2xYT containing tetracycline (12.0 μg/ml), and incubating overnight with shaking at 37° C. The resulting phage lysates were cleared of cell debris by centrifugation for 5 min in a microfuge, and 100 μl of the resulting supernatant lysate was used for a subsequent round of biopanning. All phage titering was carried out using JS5 bacteria plated on 2xYT top agar and agar plates.
Several random phage clones also were isolated from the evolved library, to represent non-binding clones.

Row | Molecule | binding result
18 | B14 | binds
19 | B15 | binds
20 | B16 | binds
21 | B17 | binds
22 | B18 | binds
23 | B19 | binds
24 | B20 | binds
25 | B21 | binds
26 | B22 | binds
27 | B23 | binds
28 | B24 | binds
29 | B25 | binds
30 | B26 | binds

The molecules below were run against T1, chimeric Ig-EPOR protein (assay: phage ELISA with normalized phage concentrations). Settings: not given.
Procedure: as §1

Row | Molecule | fold affinity relative to the parent ERB1 clone [fold]
31 | B27 | ~20
32 | B28 | ~20
